The values that follow come from patent US20230000834A1, “PHYSIOLOGICALLY ACTIVE SUBSTANCE BOUND TO BIOTIN MOIETY, AND COMPOSITION FOR ORAL ADMINISTRATION INCLUDING SAME” (priority 2019, published 2023).

One series can be described thus: in vivo. The conditions noted are these: SD, rat.
Another series has as its system blood glucose. The experiment in a line: Intraperitoneal glucose tolerance test after oral administration, Embodiments 5 and 6. The class given is in vivo, mice (C57BL/6). The conditions noted are these: C57BL/6 mice; 500 μg/kg oral at -20 minutes; glucose 2 g/kg intraperitoneal. The procedure:
To confirm glucose tolerance, Embodiments 5 and 6 were orally administered to mice, and blood glucose regulation efficacy was measured through an intraperitoneal glucose tolerance test.
To measure peritoneal glucose tolerance in an animal model, 100 μl of specimen (500 μg/kg, SEQ. ID. No. 2) was orally administered at −20 minutes to 9-week-old male mice (C57BL/6), followed by intraperitoneal injection of 200 μl glucose (2 g/kg) and observation of blood glucose changes in blood collected from the tail vein at −20, 0, 20, 40, 60, 90 and 120 minutes.
FIG. 6 is a graph illustrating blood glucose change after administering glucose to each specimen.

Non-standard residues stand in square brackets, D forms with d. No end group written: not given here. biotin moiety B2 = not defined here; biotin moiety B3 = not defined here; Aib = CC(C)(N)C(=O)O

Experimental for in vivo: The specimens were administered by subcutaneous injection and orally in amounts of 20 μg/kg to experimental rats (SD rat) with a body weight of approximately 200 g, then blood serum was isolated and enzyme-linked immunosorbent assays were carried out to measure change in blood drug concentration over time. Blood samples were collected from the jugular vein. A polypeptide having the amino acid sequence of SEQ. ID. No. 6 was used as the control.

Take `CC[C@H](C)[C@H](NC(=O)[C@H](CCC(=O)O)NC(=O)[C@H](CO)NC(=O)[C@@H](NC(=O)[C@@H](N)CO)C(C)C)C(=O)N[C@@H](CCC(N)=O)C(=O)N[C@@H](CC(C)C)C(=O)N[C@@H](CCSC)C(=O)N[C@@H](Cc1c[nH]cn1)C(=O)N[C@@H](CC(N)=O)C(=O)N[C@@H](CC(C)C)C(=O)NCC(=O)N[C@@H](CCCCN)C(=O)N[C@@H](Cc1c[nH]cn1)C(=O)N[C@@H](CC(C)C)C(=O)N[C@@H](CC(N)=O)C(=O)N[C@@H](CO)C(=O)N[C@@H](CCSC)C(=O)N[C@@H](CCC(=O)O)C(=O)N[C@@H](CCCNC(=N)N)C(=O)N[C@H](C(=O)N[C@@H](CCC(=O)O)C(=O)N[C@@H](Cc1c[nH]c2ccccc12)C(=O)N[C@@H](CC(C)C)C(=O)N[C@@H](CCCNC(=N)N)C(=O)N[C@@H](CCCCN)C(=O)N[C@@H](CCCCN)C(=O)N[C@@H](CC(C)C)C(=O)N[C@@H](CCC(N)=O)C(=O)N[C@@H](CC(=O)O)C(=O)N[C@H](C(=O)N[C@@H](Cc1c[nH]cn1)C(=O)N[C@@H](CC(N)=O)C(=O)N[C@@H](Cc1ccccc1)C(=O)N[C@@H](CSC1CC(=O)N(CCC(=O)NC(CCCCNC(=O)CCCCC2SCC3NC(=O)NC32)C(=O)NC(CCCCNC(=O)CCCCC2SCC3NC(=O)NC32)C(N)=O)C1=O)C(=O)O)C(C)C)C(C)C` (stereo partly shown) [Embodiment 8]: the bioavailability – broadly, the share of a dose that reaches the circulation, judged against a reference dose that is usually intravenous – in “in vivo” was 7.8%.

In the case of “Embodiment 5: polypeptide of SEQ. ID. No. 8 bonded to biotin moiety B2 at C30 (H[Aib]QGTFTSDYSKYLDEQAAKEFVQWLMNTC(biotin moiety B2); reading uncertain)”, the “glucose regulating ability (blood glucose change, FIG. 6)” value in the series on blood glucose is “glucose regulating ability”.

Take “Embodiment 6: polypeptide of SEQ. ID. No. 8 bonded to biotin moiety B3 at C30 (H[Aib]QGTFTSDYSKYLDEQAAKEFVQWLMNTC(biotin moiety B3); reading uncertain)”: in the series on blood glucose, the “glucose regulating ability (blood glucose change, FIG. 6)” value is on record as “glucose regulating ability”.

Take `CC[C@H](C)[C@H](NC(=O)[C@H](CCC(=O)O)NC(=O)[C@H](CO)NC(=O)[C@@H](NC(=O)[C@@H](N)CO)C(C)C)C(=O)N[C@@H](CCC(N)=O)C(=O)N[C@@H](CC(C)C)C(=O)N[C@@H](CCSC)C(=O)N[C@@H](Cc1c[nH]cn1)C(=O)N[C@@H](CC(N)=O)C(=O)N[C@@H](CC(C)C)C(=O)NCC(=O)N[C@@H](CCCCN)C(=O)N[C@@H](Cc1c[nH]cn1)C(=O)N[C@@H](CC(C)C)C(=O)N[C@@H](CC(N)=O)C(=O)N[C@@H](CO)C(=O)N[C@@H](CCSC)C(=O)N[C@@H](CCC(=O)O)C(=O)N[C@@H](CCCNC(=N)N)C(=O)N[C@H](C(=O)N[C@@H](CCC(=O)O)C(=O)N[C@@H](Cc1c[nH]c2ccccc12)C(=O)N[C@@H](CC(C)C)C(=O)N[C@@H](CCCNC(=N)N)C(=O)N[C@@H](CCCCN)C(=O)N[C@@H](CCCCN)C(=O)N[C@@H](CC(C)C)C(=O)N[C@@H](CCC(N)=O)C(=O)N[C@@H](CC(=O)O)C(=O)N[C@H](C(=O)N[C@@H](Cc1c[nH]cn1)C(=O)N[C@@H](CC(N)=O)C(=O)N[C@@H](Cc1ccccc1)C(=O)N[C@@H](CSC1CC(=O)N(CCC(=O)NC(CCCCNC(=O)CCCCC2SCC3NC(=O)NC32)C(=O)NC(CCCCNC(=O)CCCCC2SCC3NC(=O)NC32)C(=O)NC(CCCCNC(=O)CCCCC2SCC3NC(=O)NC32)C(N)=O)C1=O)C(=O)O)C(C)C)C(C)C` (stereo partly shown) [Embodiment 9]: the bioavailability in “in vivo” worked out at 4.9%.
